Source: paper PMC11763261

T1: CTB5-MBP (OsHox14, HD-Zip I) (Oryza sativa (japonica; KMXBG or Towada …, UniProt Q7XI85 1-240)
T1 sequence: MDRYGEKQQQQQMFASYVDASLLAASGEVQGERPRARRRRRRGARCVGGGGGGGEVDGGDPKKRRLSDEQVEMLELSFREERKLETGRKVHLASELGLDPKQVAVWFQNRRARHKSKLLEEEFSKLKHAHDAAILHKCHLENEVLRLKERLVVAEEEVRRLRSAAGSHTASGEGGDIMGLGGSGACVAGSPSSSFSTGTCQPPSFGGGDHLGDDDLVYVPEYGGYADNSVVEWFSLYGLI

B1: OsGA2ox6 promoter probe WT (dsDNA)
DNA 1: CGGGGATGTGCAGTTTAATTAATTTTGTATAAGATT
DNA 2: AATCTTATACAAAATTAATTAAACTGCACATCCCCG
B2: PYL9 promoter probe WT (AH1 motif) (dsDNA)
DNA 1: AAAATATATTCAATTATTGATTTGAAACTA
DNA 2: TAGTTTCAAATCAATAATTGAATATATTTT
B3: OsGA3ox1 promoter probe WT (dsDNA)
DNA 1: ATAGGAAAAAAAATTAATAATTACTTAAATTTTTTGAA
DNA 2: TTCAAAAAATTTAAGTAATTATTAATTTTTTTTCCTAT
B4: OsGA2ox6 promoter probe mutant (dsDNA)
DNA 1: CGGGGATGTGCAGTTCCCCCCATTTTGTATAAGATT
DNA 2: AATCTTATACAAAATGGGGGGAACTGCACATCCCCG
B5: OsGA3ox1 promoter probe mutant (dsDNA)
DNA 1: ATAGGAAAAAAAATTGGGGGGGGCTTAAATTTTTTGAA
DNA 2: TTCAAAAAATTTAAGCCCCCCCCAATTTTTTTTCCTAT

Molecular target: T1, CTB5-MBP (OsHox14, HD-Zip I)
Test: EMSA

| Binder | binding result |
| --- | --- |
| B1 | binds |
| B2 | binds |
| B3 | binds |
| B4 | no binding |
| B5 | no binding |
